# T1: bovine pancreatic trypsin (Bos taurus, UniProt P00760)
# T1 construct: purchased Worthington (Worthington Biochemical Corp.)
# T1 sequence (P00760 24-246): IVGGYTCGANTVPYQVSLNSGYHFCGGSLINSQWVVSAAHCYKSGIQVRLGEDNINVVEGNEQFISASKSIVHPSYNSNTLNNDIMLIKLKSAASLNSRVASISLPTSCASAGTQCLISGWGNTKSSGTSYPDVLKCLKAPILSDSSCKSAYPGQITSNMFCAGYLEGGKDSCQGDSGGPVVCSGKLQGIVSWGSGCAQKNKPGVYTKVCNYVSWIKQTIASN
# T2: VegF (UniProt P15692)
# T2 sequence (P15692 207-395): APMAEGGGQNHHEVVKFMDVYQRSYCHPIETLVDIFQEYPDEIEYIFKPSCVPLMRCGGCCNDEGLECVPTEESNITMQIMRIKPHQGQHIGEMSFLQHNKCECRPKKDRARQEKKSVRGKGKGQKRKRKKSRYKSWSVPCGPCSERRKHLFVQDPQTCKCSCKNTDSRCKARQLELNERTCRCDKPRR
# Key:
# [1] = target: T1, bovine pancreatic trypsin; test: Shake flask screen: trypsin inhibition after growth, 2-mercaptoethanol activation and acid/heat treatment; assay type: biochemical; settings: when not activated
# TGFβ = TGFβ (Homo sapiens, UniProt P01137); test: BioVeris competition binding assay, TGFβ; settings: Target protein TGFβ1, concentration reducing BioVeris signal by one half, read-out: BioVeris Binding (apparent IC50)
# Sequence of TGFβ (P01137 279-390): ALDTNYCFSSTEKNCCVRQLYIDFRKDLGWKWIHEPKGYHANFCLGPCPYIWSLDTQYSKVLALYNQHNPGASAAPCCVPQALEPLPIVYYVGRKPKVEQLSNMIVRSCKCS
# Procedure: (§1) The resulting vectors were used to transform B. subtilis BG6006 host cells. Cultures were grown in 500 ml of MBD medium and the BBI species were purified essentially as described above and by Vogtentanz et al., 2007 (Protein Expr Purif 55:40-52 [2007]). BioVeris binding assays were performed essentially as outlined in Example 5 and by the manufacturer. Binding of the modified variant BBIs to their respective target proteins was measured using a BioVeris® binding assay, which is a competition assay that determines the binding of the modified variant BBIs to its target protein (e.g. VEGF, FGF5, TGFβ and TNFα) in the presence or absence of a labeled competitor. The competitor can be a labeled monoclonal antibody raised against the target protein or a labeled native receptor of the target protein. The electrochemiluminescent binding assays were performed essentially as described in Example 5. The apparent IC50s were determined from binding data by determining the concentration of the BBI species needed to reduce the BioVeris signal by one half. BBI scaffolds without the target binding peptide in the chymotrypsin inhibitory loop were used as negative controls.
# [2] = target: T3, bovine pancreatic chymotrypsin (Bos taurus, UniProt P00766); test: Chymotrypsin inhibition assay (BBI activity); assay type: biochemical; settings: BCE103 fusion protein in cell free broth
# T3 construct: purchased Worthington
# Procedure: (§2) Trypsin inhibitory assays were performed in Assay Buffer to determine the BBI activity. Specifically, a standard curve was generated by making eleven 1:1 serial dilutions (100 μL BBI+100 μL Assay Buffer) of a 2 μg/mL standard BBI solution. The BBI standard was purified from a 1 mg/ml Trypsin-Chymotrypsin Inhibitor (Sigma Cat. #T-9777) solution in 20 mM MES pH 6.0 using a hydrophobic interaction column (POROS HP2, Phenyl column, Applied Biosystems). The column was equilibrated with 20 mM MES pH 6.0, loaded with 5 mg of the inhibitor, washed with the equilibration buffer, and then the BBI was eluted with water. […] After the incubation, 100 μL of the 0.5 mg/ml trypsin substrate (diluted in Assay Buffer from a 100 mg/ml solution in DMSO), Suc-AAPR-pNA (succinyl-Ala-Ala-Pro-Arg-para-nitroanilide, Bachem), was added, mixed and the OD (A405) was monitored for 15 min, with 1 time point recorded every 12 sec using a Spectra Max 250 (Molecular Devices). […] The BBI concentration of the unknown samples was calculated from the standard curve. Alternatively, the BBI activity was measured using the same protocol but by determining bovine pancreatic chymotrypsin (Worthington) inhibition (chymotrypsin was used at the same concentration as trypsin and chymotrypsin activity was measured by adding 100 μL of a 0.4 mg/ml chymotrypsin substrate, succinyl-Ala-Ala-Pro-Phe-para-nitroanilide, Bachem).
# VegF = target: T2, VegF; test: BioVeris electrochemiluminescence competition binding assay, VEGF; settings: labeled Anti-VegF antibody, biotinylated VegF
# Procedure: Briefly, after cleavage, the pH of the cleaved sample was adjusted to 5.5, the sample was then loaded onto the column (equilibrated with 25 mM MES pH 5.5). The free 2BBIck81 was washed through the column using 25 mM sodium acetate pH 5.0 while the BCE103 catalytic core remained bound to the resin. The 2BBIck81 fraction was concentrated by ultrafiltration and analyzed using an electrochemiluminescence (ECL) based binding assay (BioVeris). The Anti-VegF antibody (Santa Cruz) and VegF (PeproTech) were labeled with the electrochemiluminescent dye and biotin, respectively, as described by the manufacturer (BioVeris). All materials were in Dulbecco's PBS (Mediatech) supplemented with 0.1% TWEEN®-80. An initial dilution series of Anti-VegF antibody (125, 250 and 500 ng/ml) and VegF (100, 150, 200 and 250 ng/ml) were tested in the binding assay to determine the concentrations of each that would give a robust ECL signal.
# For testing 2BBIck81 binding, 50 μL of 500 ng/ml ECL labeled Anti-VegF antibody, 50 μL of 250 ng/ml biotinylated VegF and 100 μL 2BBIck81 (series of 12.5, 15, 31.25, 62.5, 125, 250 or 500 ng/ml) were incubated at room temperature for 2 h with shaking. Then, 50 μL of 0.2 mg/ml streptavidin coated beads were added and the reaction was incubated at room temperature for 30 minutes. The ECL signal was measured using a BioVeris M8/384 Analyzer as described by the manufacturer (BioVeris).
# as §1
# human CD4+ T cells = test: i-mune assay for peptide T-cell epitopes; assay type: cell-based
# Procedure: The i-mune® assay was performed for the identification of peptide T-cell epitopes in wild type BBI using naïve human T-cells, as described in WO9953038A2 and Stickler et al, 2000 (J. Immunotherapy, 23(6), 654-660, [2000]). Peptides for use in the assay were prepared based on the wild-type BBI amino acid sequence […] CYEPCKPSEDDKEN (SEQ ID NO:13). From the full length amino acid sequence of BBI, 15mer peptides were synthetically prepared by Mimotopes US West (San Diego, Calif.). Each 15mer peptide sequence was designed to overlap with the previous and subsequent 15mer, except for three residues. The 20 peptides used to screen for T-cell epitopes, corresponding to wild type BBI sequence, were:
# Briefly, human CD4+ T cells were co-cultured with dendritic cells and peptide for the intact peptide set, using the peptides shown in Figure Y. Cytokine responses were averaged within each experiment as described in Strickler et al, 2000 and a response to a peptide was tabulated as positive if the stimulation index (SI) was greater than 2.95 (FIG. 18A). SI values for each donor were compiled for each peptide set and the percent of donors responsive to each peptide is shown in FIG. 18B. The percent background response, 2.89%, was determined as the average percent responders over all the peptides in the set. The standard deviation for this dataset was 2.21%. Major epitopes are defined as having a percentage response that is 3-fold or more than the background.
# [3] = target: T1, bovine pancreatic trypsin; test: Trypsin inhibitory assay (BBI activity); assay type: biochemical
# Procedure: as §2, with “water. Unknown BBI samples to be tested in the inhibitory assay were diluted as necessary, so that two or more data points would fall within the standard curve (usually 1:10, 1:100, 1:200, 1:1000, 1:2000 sample dilutions were tested and then the dilutions fine tuned if necessary).” for “water.”
# The relative concentration of active control and modified BBIt-AV's was determined by a trypsin inhibitory assay using purified sBBI as a standard as described above. For some samples, the active BBI concentration was measured by residual trypsin activity according to the method described by Flecker (Flecker, P. FEBS Lett. 252:153-157 [1989]; Vogtentanz et al. supra). […]
molecule,measurement,setting,value
"D1C: BBIt-AV (SEQ ID NO:187) with single substitution D1C (protein, synthetic BBIt-AV sequence) CDESSKPCCDQCACTKSNPPQCRCSDMRLNSCHSACKSCACYNLYGWTCFCVDITDFCYEPCKPSE",BBIt-AV yield after acid/heat treatment relative to unmodified BBIt-AV,[1],improved yields after acid/heat treatment
"PEN3-Q-BBIt-TGF-A40L-F50N (SEQ ID NO: 677) (protein, synthetic BBdb-AV sequence) PSESSKPCCDQCACTKSIPPQCRCTDVRLNSCHSACSSCACYNLYGWTCVCVDMKDFCYEPCK",IC50,TGFβ,10 to 50 µM
1 BBIck81: BBI with the CK37281 peptide in the trypsin loop (protein) DDESSKPCCDQCACYNLYGWTCRCSDMRLNSCHSACKSCICALSYPAQCFCVDITDFCYEPCKPSEDDKEN,activity of the BBI (chymotrypsin inhibition) relative to fusions to the wild-type BBI,[2],about two fold less
same,competition with Anti-VegF antibody for binding to VegF (ECL signal),VegF,also competed with the Anti-VegF antibody
"BBI: soybean Bowman-Birk protease inhibitor from Glycine max, major mature form, SEQ ID NO:13 (protein, Glycine max) DDESSKPCCDQCACTKSNPPQCRCSDMRLNSCHSACKSCICALSYPAQCFCVDITDFCYEPCKPSEDDKEN",immunogenicity potential in humans,human CD4+ T cells,low immunogenicity potential
same,percent background response (average percent responders over all the peptides),"human CD4+ T cells; 20 overlapping 15mer peptides, 71 donors",2.89%
same,peptide T-cell epitope responses,"human CD4+ T cells; stimulation index > 2.95 positive, major epitope 3-fold or more over background",none of the peptide responses were significant
same,"activated trypsin inhibitory activity, % of expected based on BCE103 cellulase concentration","[3]; 2 mM BME and 0.2 mM GSSG, about 24 h, room temperature",70-100%
same,activity of the BBI after growth versus expected from BCE103 cellulase activity,"[3]; cell free supernatants, trypsin or chymotrypsin inhibition, before activation",5-20 times lower
